{
  "source": "paper PMC7718258",
  "key": {"[1]": {"target": "T1, mjCgi121;mjBud32;mjKae1;pfPcc1 (Methanocaldococcus jannaschii;Methanocaldococcus jannaschii;Methanocaldococcus jannaschii;Pyrococcus furiosus) (UniProt Q57646+Q58530+Q58530+Q9V1Z9)", "T1 sequence 1": "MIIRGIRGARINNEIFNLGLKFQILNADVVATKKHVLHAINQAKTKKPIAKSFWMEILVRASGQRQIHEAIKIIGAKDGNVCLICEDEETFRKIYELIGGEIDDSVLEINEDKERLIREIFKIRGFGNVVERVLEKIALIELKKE", "T1 sequence 2": "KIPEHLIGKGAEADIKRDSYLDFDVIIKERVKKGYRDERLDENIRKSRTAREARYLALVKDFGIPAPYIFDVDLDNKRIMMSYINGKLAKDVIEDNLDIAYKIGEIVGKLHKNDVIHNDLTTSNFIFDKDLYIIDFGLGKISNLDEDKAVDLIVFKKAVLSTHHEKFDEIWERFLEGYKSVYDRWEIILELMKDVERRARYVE", "T1 sequence 3": "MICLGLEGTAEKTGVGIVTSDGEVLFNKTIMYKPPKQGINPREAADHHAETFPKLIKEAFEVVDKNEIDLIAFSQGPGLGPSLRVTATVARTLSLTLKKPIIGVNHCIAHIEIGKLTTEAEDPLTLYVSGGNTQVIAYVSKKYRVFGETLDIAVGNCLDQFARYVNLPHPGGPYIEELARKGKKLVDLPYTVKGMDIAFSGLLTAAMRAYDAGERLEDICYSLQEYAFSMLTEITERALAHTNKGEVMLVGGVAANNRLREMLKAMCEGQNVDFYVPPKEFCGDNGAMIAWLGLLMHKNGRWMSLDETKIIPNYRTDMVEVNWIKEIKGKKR", "T1 sequence 4": "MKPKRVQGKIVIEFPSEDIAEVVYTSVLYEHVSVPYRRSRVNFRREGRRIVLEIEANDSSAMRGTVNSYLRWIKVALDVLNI", "assay": "fluorescence polarization", "conditions": "20 mM HEPES pH 7.5, 100 mM NaCl, 2 mM DTT; filter binding 50 nM 32P-tRNA, 1 h, room temperature; FP 50 nM 647-CCA; NMR 25 C with 10% D2O"}, "[2]": {"target": "mjCgi121;mjBud32 E152R (Methanocaldococcus jannaschii;Methanocaldococcus jannaschii) (UniProt Q57646)", "assay": "competition", "conditions": "displacement of 647-CCA (FP), 0.8 uM protein; 20 mM HEPES pH 7.5, 100 mM NaCl, 2 mM DTT; filter binding 50 nM 32P-tRNA, 1 h, room temperature; FP 50 nM 647-CCA; NMR 25 C with 10% D2O"}, "[3]": {"target": "T2, mjCgi121;mjBud32 (Methanocaldococcus jannaschii;Methanocaldococcus jannaschii) (UniProt Q57646+Q58530)", "T2 sequence 1": "T1 sequence 1", "T2 sequence 2": "T1 sequence 2", "assay": "competition", "conditions": "displacement of 647-CCA (FP), 0.8 uM protein; 20 mM HEPES pH 7.5, 100 mM NaCl, 2 mM DTT; filter binding 50 nM 32P-tRNA, 1 h, room temperature; FP 50 nM 647-CCA; NMR 25 C with 10% D2O"}, "[4]": {"target": "mjCgi121;mjBud32 R60E (Methanocaldococcus jannaschii;Methanocaldococcus jannaschii) (UniProt Q57646)", "assay": "competition", "conditions": "displacement of 647-CCA (FP), 0.8 uM protein; 20 mM HEPES pH 7.5, 100 mM NaCl, 2 mM DTT; filter binding 50 nM 32P-tRNA, 1 h, room temperature; FP 50 nM 647-CCA; NMR 25 C with 10% D2O"}, "[5]": {"target": "T3, mjCgi121 (Methanocaldococcus jannaschii) (UniProt Q57646)", "T3 sequence": "T1 sequence 1", "assay": "competition", "conditions": "displacement of 647-CCA (FP); 20 mM HEPES pH 7.5, 100 mM NaCl, 2 mM DTT; filter binding 50 nM 32P-tRNA, 1 h, room temperature; FP 50 nM 647-CCA; NMR 25 C with 10% D2O"}},
  "data": [
    {"substance": "CCGCCA [647-CCA]", "values": [
      {"measurement": "Kd", "setting": "[1]", "value": 263, "unit": "nM"}
    ]},
    {"substance": "mjtRNALysUUU", "values": [
      {"measurement": "IC50", "setting": "[2]", "value": 600, "unit": "nM"},
      {"measurement": "IC50", "setting": "[3]", "value": 1200, "unit": "nM"},
      {"measurement": "IC50", "setting": "[4]", "value": 7600, "unit": "nM"}
    ]},
    {"substance": "mjtRNAValCAC", "values": [
      {"measurement": "binding signal (fold less efficient than mjtRNALys)", "setting": "[5]", "value": 7.3}
    ]}
  ]
}
